T1: XPF-ERCC1 nuclease (XE), recombinant (UniProt Q9QZD4 1-917; P07903 1-298)
T1 construct: XPF, wild type; ERCC1; ERCC1 forms a doublet on the blot owing to a proteolytic site in the N terminus (about 2 kDa shift); also called WT XE; source: insect cells, purified (alone or in complex with mini-SLX4)
T1 sequence (looked up) 1: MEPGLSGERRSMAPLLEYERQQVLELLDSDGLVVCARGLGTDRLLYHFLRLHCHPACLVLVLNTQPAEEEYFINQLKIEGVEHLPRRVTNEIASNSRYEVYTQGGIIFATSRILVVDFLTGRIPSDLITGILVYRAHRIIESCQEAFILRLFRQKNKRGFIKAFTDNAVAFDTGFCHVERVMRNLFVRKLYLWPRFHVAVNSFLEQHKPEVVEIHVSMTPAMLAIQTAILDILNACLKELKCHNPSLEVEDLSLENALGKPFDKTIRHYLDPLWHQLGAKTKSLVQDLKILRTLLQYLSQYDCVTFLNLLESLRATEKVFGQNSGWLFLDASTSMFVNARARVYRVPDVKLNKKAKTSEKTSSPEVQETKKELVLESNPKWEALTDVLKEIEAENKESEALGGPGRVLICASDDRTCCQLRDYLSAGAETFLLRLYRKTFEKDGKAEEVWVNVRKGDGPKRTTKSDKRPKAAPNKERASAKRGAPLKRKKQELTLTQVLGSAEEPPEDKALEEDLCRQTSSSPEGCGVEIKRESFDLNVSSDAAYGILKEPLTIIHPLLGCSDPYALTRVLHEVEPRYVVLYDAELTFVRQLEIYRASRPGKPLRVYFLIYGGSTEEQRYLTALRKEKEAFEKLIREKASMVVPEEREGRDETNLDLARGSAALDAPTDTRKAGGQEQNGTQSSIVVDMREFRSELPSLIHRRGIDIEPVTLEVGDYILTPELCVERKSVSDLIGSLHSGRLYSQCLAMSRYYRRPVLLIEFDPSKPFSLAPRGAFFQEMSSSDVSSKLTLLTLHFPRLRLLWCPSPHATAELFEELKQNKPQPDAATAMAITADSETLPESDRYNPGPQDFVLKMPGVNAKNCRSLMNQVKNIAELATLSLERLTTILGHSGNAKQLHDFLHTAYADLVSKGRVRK
T1 sequence (looked up) 2: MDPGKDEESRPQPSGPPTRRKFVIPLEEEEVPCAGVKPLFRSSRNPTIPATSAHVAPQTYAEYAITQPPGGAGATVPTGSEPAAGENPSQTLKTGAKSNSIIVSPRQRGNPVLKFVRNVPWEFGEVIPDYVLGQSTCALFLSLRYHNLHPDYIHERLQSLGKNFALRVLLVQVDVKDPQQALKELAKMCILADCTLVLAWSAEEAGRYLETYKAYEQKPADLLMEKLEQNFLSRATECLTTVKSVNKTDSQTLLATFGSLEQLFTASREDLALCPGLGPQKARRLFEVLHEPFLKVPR


Key:
[1] = biological target: T1, XPF-ERCC1 nuclease (XE), recombinant; test: SEC-MALS; light-scattering analysis of the purified SXE complex (Figure S1F); conditions: both partners purified
[2] = biological target: T1, XPF-ERCC1 nuclease (XE), recombinant; test: cell-based or functional assay
[3] = biological target: the molecule itself; test: SEC-MALS; light-scattering analysis of the purified SXE complex (Figure S1F)

Binder	stoichiometry N [1]	incision rate on the interstrand crosslink (ICL) fork substrate, SXE against XE (5 nM enzyme) [2] [fold]	nuclease rate on the bubble substrate, SXE against XE (5 nM enzyme) [2] [fold]	nuclease rate on the fork substrate Y11, SXE against XE (5 nM enzyme) [2] [fold]	nuclease rate on the long stem-loop substrate, SXE against XE (5 nM enzyme) [2] [fold]	stoichiometry N [3]
Recombinant mini-SLX4 (1-758) (domain or fragment, mouse, UniProt Q6P1D7 1-758, looked up, mouse SLX4, residues 1-758; source: insect cells, purified (in complex with XPF-ERCC1, or alone)) MVPESAPNGNSQPLPSCFTTTGVPSPSKPRVSELVLQRMKQFKRADPERLRHASEESPQKTALGDDVPRSPPEETVGENEYKLDATDSDAAMALALQQEFRREEASSHHDSLEEKGLFFCQMCQKNLSAMNVTRREQHVNRCLDEAEKAQRPASPRIPDCPICGKPFLTTKSRISHLKQCAVRMEVGPQLLLQAVRLQTAQPEVDGSPQVPSFSNNVGGLKRKGVTTKREPRRRKVNKPEAPSEDLLVAMALSRSEVEHCPVVPPLRLENAFSEKIRLGAEKKSRKKRPPVCPPQLVTQDSETTGRQIEDRVAQLLSEEAELSCTPPLLASKISKEELEPAGWRARLPEGKRNFLWELSALTGAWAEESFYTVGLFPPIVSQCPSKEPQLPLELPKQGEPSPRRPPASQSSLPVSHSPKIRLLSSSQRERQALQDLVDLAVEGLSSSPQPGSRGVPTGLDLVPSSLPLTGFVLPCKKTLKKDDSASLSLGLLVTDFGAMVNNPHLSDVQFQLDSGEVLYAHKFVLYARCPLLIQYVSTESFSSEEDGDLTQRALLSDVSSEAAHAFLNYLYMADTDMPPSLVPDLRSLALRFGVSDLVQLCEQVPAVVDLEGEQPEETSEDCESRAETFLELLRSVWVDNEEEVETLLKPELCEEERERVNEAEMEEIYEFAATQRKLLQWGRAADPDGSTNPHGEDGAVSEPSLAGVQSNRQLENTEHMESSGLEKEEALASWEQEGHSTPLQDQCPDWAGKAEAQD	1	110	3.5	16	3.7	–
mini-SLX4-XPF-ERCC1 (SXE) complex (complex, mouse SLX4, residues 1-758; XPF, wild type; ERCC1; 430 kDa by light scattering; also called WT SXE; source: insect cells, purified; copies: 2 + 2 + 2) chain 1: MVPESAPNGNSQPLPSCFTTTGVPSPSKPRVSELVLQRMKQFKRADPERLRHASEESPQKTALGDDVPRSPPEETVGENEYKLDATDSDAAMALALQQEFRREEASSHHDSLEEKGLFFCQMCQKNLSAMNVTRREQHVNRCLDEAEKAQRPASPRIPDCPICGKPFLTTKSRISHLKQCAVRMEVGPQLLLQAVRLQTAQPEVDGSPQVPSFSNNVGGLKRKGVTTKREPRRRKVNKPEAPSEDLLVAMALSRSEVEHCPVVPPLRLENAFSEKIRLGAEKKSRKKRPPVCPPQLVTQDSETTGRQIEDRVAQLLSEEAELSCTPPLLASKISKEELEPAGWRARLPEGKRNFLWELSALTGAWAEESFYTVGLFPPIVSQCPSKEPQLPLELPKQGEPSPRRPPASQSSLPVSHSPKIRLLSSSQRERQALQDLVDLAVEGLSSSPQPGSRGVPTGLDLVPSSLPLTGFVLPCKKTLKKDDSASLSLGLLVTDFGAMVNNPHLSDVQFQLDSGEVLYAHKFVLYARCPLLIQYVSTESFSSEEDGDLTQRALLSDVSSEAAHAFLNYLYMADTDMPPSLVPDLRSLALRFGVSDLVQLCEQVPAVVDLEGEQPEETSEDCESRAETFLELLRSVWVDNEEEVETLLKPELCEEERERVNEAEMEEIYEFAATQRKLLQWGRAADPDGSTNPHGEDGAVSEPSLAGVQSNRQLENTEHMESSGLEKEEALASWEQEGHSTPLQDQCPDWAGKAEAQD chain 2: MEPGLSGERRSMAPLLEYERQQVLELLDSDGLVVCARGLGTDRLLYHFLRLHCHPACLVLVLNTQPAEEEYFINQLKIEGVEHLPRRVTNEIASNSRYEVYTQGGIIFATSRILVVDFLTGRIPSDLITGILVYRAHRIIESCQEAFILRLFRQKNKRGFIKAFTDNAVAFDTGFCHVERVMRNLFVRKLYLWPRFHVAVNSFLEQHKPEVVEIHVSMTPAMLAIQTAILDILNACLKELKCHNPSLEVEDLSLENALGKPFDKTIRHYLDPLWHQLGAKTKSLVQDLKILRTLLQYLSQYDCVTFLNLLESLRATEKVFGQNSGWLFLDASTSMFVNARARVYRVPDVKLNKKAKTSEKTSSPEVQETKKELVLESNPKWEALTDVLKEIEAENKESEALGGPGRVLICASDDRTCCQLRDYLSAGAETFLLRLYRKTFEKDGKAEEVWVNVRKGDGPKRTTKSDKRPKAAPNKERASAKRGAPLKRKKQELTLTQVLGSAEEPPEDKALEEDLCRQTSSSPEGCGVEIKRESFDLNVSSDAAYGILKEPLTIIHPLLGCSDPYALTRVLHEVEPRYVVLYDAELTFVRQLEIYRASRPGKPLRVYFLIYGGSTEEQRYLTALRKEKEAFEKLIREKASMVVPEEREGRDETNLDLARGSAALDAPTDTRKAGGQEQNGTQSSIVVDMREFRSELPSLIHRRGIDIEPVTLEVGDYILTPELCVERKSVSDLIGSLHSGRLYSQCLAMSRYYRRPVLLIEFDPSKPFSLAPRGAFFQEMSSSDVSSKLTLLTLHFPRLRLLWCPSPHATAELFEELKQNKPQPDAATAMAITADSETLPESDRYNPGPQDFVLKMPGVNAKNCRSLMNQVKNIAELATLSLERLTTILGHSGNAKQLHDFLHTAYADLVSKGRVRK chain 3: MDPGKDEESRPQPSGPPTRRKFVIPLEEEEVPCAGVKPLFRSSRNPTIPATSAHVAPQTYAEYAITQPPGGAGATVPTGSEPAAGENPSQTLKTGAKSNSIIVSPRQRGNPVLKFVRNVPWEFGEVIPDYVLGQSTCALFLSLRYHNLHPDYIHERLQSLGKNFALRVLLVQVDVKDPQQALKELAKMCILADCTLVLAWSAEEAGRYLETYKAYEQKPADLLMEKLEQNFLSRATECLTTVKSVNKTDSQTLLATFGSLEQLFTASREDLALCPGLGPQKARRLFEVLHEPFLKVPR	–	–	–	–	–	2

Reference: publication PMC4017094, “Mouse SLX4 Is a Tumor Suppressor that Stimulates the Activity of the Nuclease XPF-ERCC1 in DNA Crosslink Repair” (Molecular Cell, 2014)
